We go through five substances from patent US20220185894A1.

The target in test [1] is CD20 endogenously expressed on Raji cells (UniProt P11836). The experiment in a line: cell-based or functional assay.
Test [2] concerns the target mouse LAG-3 expressed on cells (mouse) (UniProt Q61790). The experiment in a line: flow cytometry on HEK cells expressing mouse LAG-3.
The target is the same in test [3]. The experiment in a line: flow cytometry on HEK cells expressing murine LAG-3. Background: A flow cytometer gives signals particle by particle.
Test [4] deals with human FcγRI (R&D Systems, 1257-FC) (human) (UniProt P12314). The experiment in a line: SPR, Biacore T200; FcγR immobilised, 200 µg/ml injected. On the technique in general: Surface plasmon resonance follows binding to a sensor surface in real time, without labels.
Test [5] addresses human FcγRIIIa (R&D Systems, 4325-FC) (human) (UniProt P08637). The test is described as above.
Test [6] addresses human FcγRIIa (R&D Systems, 1330-CD) (human) (UniProt P12318). The experiment in a line: SPR, BIAcore 3000; FcγR immobilised, 500 µg/ml injected.
For test [7] the target is unchanged. Kind of test: SPR, Biacore T200; FcγR immobilised, 500 µg/ml injected.
For test [8], the target named is human FcγRIIb/c (R&D Systems, 1875-CD) (human) (UniProt P31994). The description is as above.
For test [9], the target named is human FcγRI (R&D Systems, 1257-FC) (human) (UniProt P12314). Kind of test: SPR, BIAcore 3000; FcγR immobilised, 100 µg/ml injected.
Test [10] addresses human FcγRIIb/c (R&D Systems, 1875-CD) (human) (UniProt P31994). Kind of test: SPR, BIAcore 3000; FcγR immobilised, 500 µg/ml injected.

CD20 endogenously expressed on Raji cells, sequence (P11836 whole entry): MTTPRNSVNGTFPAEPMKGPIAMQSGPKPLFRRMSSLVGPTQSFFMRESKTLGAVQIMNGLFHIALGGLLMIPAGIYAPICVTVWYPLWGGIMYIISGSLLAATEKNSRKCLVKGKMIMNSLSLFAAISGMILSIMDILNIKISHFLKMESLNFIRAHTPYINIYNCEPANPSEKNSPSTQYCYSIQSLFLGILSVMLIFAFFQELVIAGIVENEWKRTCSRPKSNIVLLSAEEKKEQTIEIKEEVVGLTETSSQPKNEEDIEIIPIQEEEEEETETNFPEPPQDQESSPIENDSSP
human FcγRIIb/c (R&D Systems, 1875-CD) (human), sequence (P31994 46-217 limits assumed): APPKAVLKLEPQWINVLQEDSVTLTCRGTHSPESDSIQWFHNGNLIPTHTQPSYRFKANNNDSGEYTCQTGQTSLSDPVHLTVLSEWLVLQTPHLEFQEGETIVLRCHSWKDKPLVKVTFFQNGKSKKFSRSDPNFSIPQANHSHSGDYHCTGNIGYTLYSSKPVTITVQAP
mouse LAG-3 expressed on cells (mouse), sequence (Q61790 24-521 limits assumed): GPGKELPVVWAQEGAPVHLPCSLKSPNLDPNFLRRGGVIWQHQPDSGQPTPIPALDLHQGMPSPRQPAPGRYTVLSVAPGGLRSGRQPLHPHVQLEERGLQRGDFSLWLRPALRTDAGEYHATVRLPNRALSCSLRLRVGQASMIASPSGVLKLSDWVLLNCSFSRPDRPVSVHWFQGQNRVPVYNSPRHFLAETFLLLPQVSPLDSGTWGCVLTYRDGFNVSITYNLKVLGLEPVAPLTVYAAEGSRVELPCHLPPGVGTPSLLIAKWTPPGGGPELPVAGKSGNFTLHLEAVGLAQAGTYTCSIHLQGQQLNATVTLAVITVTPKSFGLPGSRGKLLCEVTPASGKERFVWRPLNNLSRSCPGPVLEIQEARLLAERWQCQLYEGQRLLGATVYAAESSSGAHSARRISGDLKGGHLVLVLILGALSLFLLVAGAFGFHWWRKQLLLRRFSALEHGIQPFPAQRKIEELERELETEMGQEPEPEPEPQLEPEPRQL
human FcγRI (R&D Systems, 1257-FC) (human), sequence (P12314 16-288 limits assumed): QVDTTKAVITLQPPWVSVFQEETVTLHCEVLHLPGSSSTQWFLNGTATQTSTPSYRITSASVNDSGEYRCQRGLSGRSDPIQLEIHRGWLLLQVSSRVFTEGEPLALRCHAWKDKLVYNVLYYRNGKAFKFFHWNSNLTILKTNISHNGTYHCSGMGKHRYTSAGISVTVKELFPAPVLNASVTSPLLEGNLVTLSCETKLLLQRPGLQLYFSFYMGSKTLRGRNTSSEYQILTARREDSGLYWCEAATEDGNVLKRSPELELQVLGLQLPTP
human FcγRIIa (R&D Systems, 1330-CD) (human), sequence (P12318 36-218 limits assumed): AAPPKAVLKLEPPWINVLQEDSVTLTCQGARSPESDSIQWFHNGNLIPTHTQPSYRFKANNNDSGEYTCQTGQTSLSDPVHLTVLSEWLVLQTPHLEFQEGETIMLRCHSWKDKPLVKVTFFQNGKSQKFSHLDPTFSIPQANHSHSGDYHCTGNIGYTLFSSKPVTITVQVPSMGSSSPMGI
human FcγRIIIa (R&D Systems, 4325-FC) (human), sequence (P08637 17-208 limits assumed): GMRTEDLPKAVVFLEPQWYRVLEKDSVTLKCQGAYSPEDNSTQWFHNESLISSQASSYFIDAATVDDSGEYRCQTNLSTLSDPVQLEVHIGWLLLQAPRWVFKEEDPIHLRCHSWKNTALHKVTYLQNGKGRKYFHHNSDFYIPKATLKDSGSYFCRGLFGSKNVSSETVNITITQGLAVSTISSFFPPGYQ

Take “anti-CD20 antibody Rituximab (generic version, IgG1 format)”: in test [1], the ADCC, LDH release, maximum lysis of LAG-3 expressing Raji cells worked out at 40%; the ADCC, LDH release, maximum lysis of PD-L1 expressing Raji cells was found to be 40%; the CDC, LDH release, maximum lysis of PD-L1 expressing Raji cells was under 60%.

“benchmark anti-mouse LAG-3 mAb C9B7W (2B Scientific, BE0174-50MG) (antibody)”: in test [2], the EC50 (commonly the midpoint of the concentration-response curve) was determined as 79 nM and the fold poorer affinity (EC50) than the Fcabs was 17 fold. In test [3], the EC50 worked out at 27 nM.

As to “monoclonal IgG2 isotype mAb to an irrelevant target (antibody)”, the binding response at end of association (RU) is 0 RU in [4]; 1.9 RU in test [5]; 9 RU in [6]; 9.7 RU in [7]; 7.4 RU in [8].

Regarding “monoclonal IgG4 isotype mAb to an irrelevant target (antibody)”, the binding response at end of association (RU) was 9 RU in [4]; 3.1 RU in [5]; 8 RU in test [9]; 8 RU in [6]; 9 RU in [10]; 4.3 RU in test [7]. The substance further came in with a binding response at end of association (RU) in test [8] of 15.1 RU.

The substance mouse IgG1 (Sigma, P5305) (antibody) had a binding response at end of association (RU) in test [6] of 7 RU.
